Binding result and Kd data for one molecule are collected here from patent US20100310509A1 (published 2010).

In assay [1] the target is T1, gp130 bound LIF (gp130:LIF) (human, UniProt P40189 23-619; P15018 23-202).
T1 construct: Non-covalent complex formed on the plate: gp130 coated, then saturating cytokine; also called LIF with gp130
Put plainly: ELISA, gp130 coated and loaded with LIF, soluble OSMR titrated, anti-OSMR detection, O.D at 450 nm.

Assay [2] concerns the target T2, gp130 bound OSM-WT (gp130:OSM-WT) (human, UniProt P40189 23-619).
T2 construct: extracellular domain; Non-covalent complex formed on the plate: gp130 coated, then 200 nM OSM-WT; also called OSM-WT with gp130; not shown: N-terminal FLAG tag
T2 sequence 1: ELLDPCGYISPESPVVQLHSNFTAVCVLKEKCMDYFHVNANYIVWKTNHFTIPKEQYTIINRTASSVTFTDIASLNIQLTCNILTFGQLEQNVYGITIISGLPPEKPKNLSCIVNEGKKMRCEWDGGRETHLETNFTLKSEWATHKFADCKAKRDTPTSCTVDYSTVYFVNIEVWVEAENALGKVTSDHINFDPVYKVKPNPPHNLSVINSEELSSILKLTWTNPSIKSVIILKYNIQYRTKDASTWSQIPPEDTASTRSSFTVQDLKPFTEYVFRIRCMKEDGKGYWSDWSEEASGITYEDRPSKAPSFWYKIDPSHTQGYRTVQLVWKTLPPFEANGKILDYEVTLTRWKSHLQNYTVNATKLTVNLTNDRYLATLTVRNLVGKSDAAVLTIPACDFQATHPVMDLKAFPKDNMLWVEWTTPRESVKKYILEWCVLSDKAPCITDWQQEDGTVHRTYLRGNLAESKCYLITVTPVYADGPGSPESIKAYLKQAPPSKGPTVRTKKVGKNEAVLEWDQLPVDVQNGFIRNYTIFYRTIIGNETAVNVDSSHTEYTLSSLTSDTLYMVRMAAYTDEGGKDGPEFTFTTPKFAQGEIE
T2 sequence 2: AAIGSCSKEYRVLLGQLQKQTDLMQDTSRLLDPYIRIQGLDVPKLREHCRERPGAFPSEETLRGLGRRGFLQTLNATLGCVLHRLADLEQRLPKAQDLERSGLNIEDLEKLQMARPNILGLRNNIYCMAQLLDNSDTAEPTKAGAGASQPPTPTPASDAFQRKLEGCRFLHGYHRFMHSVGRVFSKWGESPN
Put plainly: ELISA, apparent KD (KD,App), gp130 coated, saturating cytokine, soluble OSMR titrated (with gp130). The procedure:
(§1) FIG. 13 graphically depicts an ELISA analysis of soluble OSMR and soluble LIFR binding with LIF, OSM-WT, OSM-M1 and OSM-M2 or gp130 bound LIF (gp130:LIF), OSM-WT (gp130:OSM-WT), OSM-M1 (gp130:OSM-M1) and OSM-M2 (gp130:OSM-M2). Cytokines (LIF, OSM-WT, OSM-M1 or OSM-M2) immobilized on an ELISA plate in the absence (A,C) or presence (B,D) of gp130 were treated with various concentrations of soluble OSMR (A,B) or soluble LIFR (C,D). Equilibrium KD values were estimated using a non-linear curve fitting to the binding data using GraphPad Prism (Graph Pad Software. LaJolla, Calif.). In addition, see Table 3.
(§2) Enzyme-linked immunosorbent assay (ELISA): ELISA was used to evaluate the equilibrium binding strength of the interaction between the cytokines and their receptors. This technique has traditionally been used as a sensitive method to quantify the binding affinities between two interacting proteins. However, unlike in SPR, ELISA involves immobilization of the proteins on a flat plastic surface driven by hydrophobic and ionic interactions. This might cause some distortion in the 3 dimensional structure of immobilized protein which leads to inaccuracies in the estimation of dissociation constants. It is thus important to bear in mind that the values estimated using this technique are to be used only for comparison between species but not as true equilibrium binding constants. The results obtained using this technique will thus be presented as apparent equilibrium dissociation constants (K_{D,App}). For direct interaction studies, cytokines (LIF, OSM-WT, OSM-M1 or OSM-M2) were immobilized on the 96 well ELISA plate by incubating the wells with 200 μl of 5 nM cytokine solution in PBS, pH 7.4 overnight at 4° C. The wells were then blocked with blocking buffer (4% BSA in PBS) for 1 hour at room temperature. […]
A general note: An ELISA detects its analyte on a solid surface through an enzyme-linked reagent.

Assay [3] has as its target T3, gp130 bound OSM-M1 (gp130:OSM-M1) (human, UniProt P40189 23-619).
T3 construct: extracellular domain; Non-covalent complex formed on the plate: gp130 coated, then 200 nM OSM-M1; also called OSM-M1 with gp130; not shown: N-terminal FLAG tag
T3 sequence 1: T2 sequence 1
T3 sequence 2: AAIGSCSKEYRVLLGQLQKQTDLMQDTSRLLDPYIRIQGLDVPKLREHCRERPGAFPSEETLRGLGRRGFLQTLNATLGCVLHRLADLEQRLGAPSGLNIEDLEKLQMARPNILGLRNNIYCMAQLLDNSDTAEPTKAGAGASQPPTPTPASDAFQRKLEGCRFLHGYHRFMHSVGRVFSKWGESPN
The description is as above. The procedure:
as §1, §2

The target in assay [4] is T4, gp130 bound OSM-M2 (gp130:OSM-M2) (human, UniProt P40189 23-619).
T4 construct: extracellular domain; Non-covalent complex formed on the plate: gp130 coated, then 200 nM OSM-M2; also called OSM-M2 with gp130; not shown: N-terminal FLAG tag
T4 sequence 1: T2 sequence 1
T4 sequence 2: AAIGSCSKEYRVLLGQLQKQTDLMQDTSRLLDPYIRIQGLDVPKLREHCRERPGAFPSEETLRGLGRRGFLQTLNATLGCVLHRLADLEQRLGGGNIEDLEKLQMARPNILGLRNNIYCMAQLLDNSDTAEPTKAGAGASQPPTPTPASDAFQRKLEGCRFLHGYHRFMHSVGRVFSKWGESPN
The assay is described as above. The procedure: as §1, §2

T1 sequence (P15018 23-202 limits assumed, one chain of several): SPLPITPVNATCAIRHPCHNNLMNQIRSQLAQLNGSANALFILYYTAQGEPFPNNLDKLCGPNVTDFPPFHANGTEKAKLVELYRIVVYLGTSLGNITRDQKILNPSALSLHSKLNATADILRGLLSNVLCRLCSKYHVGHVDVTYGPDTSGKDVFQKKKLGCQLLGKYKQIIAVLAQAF

B1: soluble human OSMR (Oncostatin M receptor) (receptor, UniProt Q99650 28-740, looked up)
chain: ERLPLTPVSLKVSTNSTRQSLHLQWTVHNLPYHQELKMVFQIQISRIETSNVIWVGNYSTTVKWNQVLHWSWESELPLECATHFVRIKSLVDDAKFPEPNFWSNWSSWEEVSVQDSTGQDILFVFPKDKLVEEGTNVTICYVSRNIQNNVSCYLEGKQIHGEQLDPHVTAFNLNSVPFIRNKGTNIYCEASQGNVSEGMKGIVLFVSKVLEEPKDFSCETEDFKTLHCTWDPGTDTALGWSKQPSQSYTLFESFSGEKKLCTHKNWCNWQITQDSQETYNFTLIAENYLRKRSVNILFNLTHRVYLMNPFSVNFENVNATNAIMTWKVHSIRNNFTYLCQIELHGEGKMMQYNVSIKVNGEYFLSELEPATEYMARVRCADASHFWKWSEWSGQNFTTLEAAPSEAPDVWRIVSLEPGNHTVTLFWKPLSKLHANGKILFYNVVVENLDKPSSSELHSIPAPANSTKLILDRCSYQICVIANNSVGASPASVIVISADPENKEVEEERIAGTEGGFSLSWKPQPGDVIGYVVDWCDHTQDVLGDFQWKNVGPNTTSTVISTDAFRPGVRYDFRIYGLSTKRIACLLEKKTGYSQELAPSDNPHVLVDTLTSHSFTLSWKDYSTESQPGFIQGYHVYLKSKARQCHPRFEKAVLSDGSECCKYKIDNPEEKALIVDNLKPESFYEFFITPFTSAGEGPSATFTKVTTPDEHSSM
notes: extracellular domain; Bought; also called soluble OSMR
As for B1, in assay [1], the binding result is reported as “no binding (tested: 75 nM)”. Moreover, the Kd in assay [2] came out at 10.9 nM; in assay [3] it was 3.71 nM; in assay [4] it was 2.19 nM.
